Experiments:
[1] = tested on: O=C(O)C(=O)CCO; test: OHB/pyruvate reductase assay, Oc-LdhA; assay type: biochemical, Oryctalagus cuniculus; conditions: other: pH 7, 37° C., 0.25 mM NADH
Description: (§1) The genes coding for (L)-malate dehydrogenase in Escherichia coli, Ec-mdh (SEQ ID NO: 1), (D)-lactate dehydrogenase in E. coli, Ec-ldhA (SEQ ID NO: 3), (L)-lactate dehydrogenase of Lactococcus lactis, Ll-ldhA (SEQ ID NO: 5), (L)-lactate dehydrogenase of Bacillus subtilis, Bs-ldh (SEQ ID NO: 7), (L)-lactate dehydrogenase of Geobacillus stearothermophilus, Gs-ldh (SEQ ID NO: 9), the two isoforms of the (L)-lactate dehydrogenase of Oryctalagus cuniculus, Oc-ldhA (SEQ ID NO: 11 and SEQ ID NO: 13), were amplified by PCR using the high-fidelity polymerase Phusion™ (Fermentas) and the primers listed in Table 1. Genomic DNAs of E. coli MG1655, L. lactis IL1403, and B. subtilis strain 168 were used as the template. The genes Oc-ldhA, and Gs-ldh were codon-optimized for expression in E. coli and synthesized by MWG Eurofins. The primers introduced restriction sites (Table 1) upstream of the start codon and downstream of the stop codon, respectively, facilitating the ligation of the digested PCR products into the corresponding sites of the pET28a+ (Novagen) expression vector using T4 DNA ligase (Fermentas). Ligation products were transformed into E. coli DH5a cells (NEB). […]

[2] = tested on: CC(=O)C(=O)O; test: OHB/pyruvate reductase assay, Oc-LdhA; assay type: biochemical, Oryctalagus cuniculus; conditions: other: pH 7, 37° C., 0.25 mM NADH
Description: as §1

In the case of “Oryctolagus cuniculus (printed: Oryctalagus cuniculus) (L)-lactate dehydrogenase Oc-LdhA, SEQ ID NO: 12 and SEQ ID NO: 14 (two isoforms) (Oryctolagus cuniculus)”, the Km [1] is reported as 13 mM and the Km [2] is reported as 1.5 mM.

Reference: patent US11505811B2, “Method for the preparation of 2,4-dihydroxybutyrate” (ADISSEO FRANCE S.A.S., priority 2012, dated 2022)
